Data published in US20170349667A1.

Molecular target: human c-Met on cells (MKN-45, A549, HPAF, BxPC3) (human) (UniProt P08581)
Test: cell-based or functional assay

Sequence of human c-Met on cells (MKN-45, A549, HPAF, BxPC3) (human) (P08581 25-1390): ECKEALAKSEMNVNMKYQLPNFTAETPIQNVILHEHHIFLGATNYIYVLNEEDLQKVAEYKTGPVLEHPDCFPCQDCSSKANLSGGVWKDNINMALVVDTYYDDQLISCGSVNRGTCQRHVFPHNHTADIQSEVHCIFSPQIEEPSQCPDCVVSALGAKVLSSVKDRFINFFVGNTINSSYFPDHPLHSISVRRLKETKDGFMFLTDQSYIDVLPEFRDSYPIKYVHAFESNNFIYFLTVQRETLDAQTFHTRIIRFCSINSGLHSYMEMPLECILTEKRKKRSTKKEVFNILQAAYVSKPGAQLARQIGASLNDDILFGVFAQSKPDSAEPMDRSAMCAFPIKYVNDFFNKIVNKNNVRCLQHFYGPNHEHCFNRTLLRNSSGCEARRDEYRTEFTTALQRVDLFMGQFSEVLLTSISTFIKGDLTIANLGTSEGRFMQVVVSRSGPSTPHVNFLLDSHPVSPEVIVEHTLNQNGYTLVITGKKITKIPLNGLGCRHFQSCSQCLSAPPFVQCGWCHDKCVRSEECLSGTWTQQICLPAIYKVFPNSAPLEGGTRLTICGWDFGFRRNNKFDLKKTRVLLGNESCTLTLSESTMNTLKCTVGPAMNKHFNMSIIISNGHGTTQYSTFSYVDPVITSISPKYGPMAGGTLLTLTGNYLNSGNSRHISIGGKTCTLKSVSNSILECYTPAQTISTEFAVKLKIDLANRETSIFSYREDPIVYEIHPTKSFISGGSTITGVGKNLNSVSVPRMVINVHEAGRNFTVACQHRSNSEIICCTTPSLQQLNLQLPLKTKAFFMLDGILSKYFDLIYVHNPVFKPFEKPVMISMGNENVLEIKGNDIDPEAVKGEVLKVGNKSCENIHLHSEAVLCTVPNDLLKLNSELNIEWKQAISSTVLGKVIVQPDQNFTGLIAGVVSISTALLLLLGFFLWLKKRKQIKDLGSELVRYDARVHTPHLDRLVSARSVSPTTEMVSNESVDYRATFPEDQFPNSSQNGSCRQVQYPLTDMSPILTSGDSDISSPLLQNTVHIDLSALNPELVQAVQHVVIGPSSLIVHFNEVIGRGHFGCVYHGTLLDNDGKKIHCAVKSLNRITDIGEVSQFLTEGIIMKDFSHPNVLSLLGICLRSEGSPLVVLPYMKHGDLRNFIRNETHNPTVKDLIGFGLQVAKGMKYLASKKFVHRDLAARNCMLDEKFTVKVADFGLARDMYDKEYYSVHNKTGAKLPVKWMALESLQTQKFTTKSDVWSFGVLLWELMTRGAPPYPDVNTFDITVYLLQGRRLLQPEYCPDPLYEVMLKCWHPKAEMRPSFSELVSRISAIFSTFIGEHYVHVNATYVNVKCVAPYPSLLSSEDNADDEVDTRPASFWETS

murine 5D5 antibody
down-regulation of total c-Met on the surface of MKN-45 cells: 50 to 60%
